Experimental data taken from patent US8257714B2, “Compositions and methods for immunotherapy of cancer and infectious diseases” (priority 2003, dated 2012).
Marks after values point to notes of the source that are not given here.

Experiments:
S-180 tumor = test: Murine S-180 tumor model; assay type: in vivo, BALB/c mice; conditions: GM-CSF alone, 20 ng/mouse/day
Experimental: In a preferred embodiment, The S-180 cell line (ATCC CCL 8, batch F4805) is chosen as the tumor model because the same line is capable of growing both in animals and in culture (in both serum-containing and serum-free conditions). Tumors are established in mice (BALB/c) by injection of cell suspensions obtained from tissue culture. Approximately […] to 3×10^6 cells are injected intra-peritoneally per mouse. The tumor developed as multiple solid nodules at multiple sites within the peritoneal cavity and cause death in most of the animals within 10 to 15 days. In addition to monitoring animal survival, their condition is qualitatively assessed as tumor growth progressed and used to generate a tumor index as described in the following paragraph.
To establish an estimate of drug activity in tumor model experiments, an index can be developed that combines observational examination of the animals as well as their survival status. […]
The S-180 cell line (ATCC CCL 8, batch F4805) was chosen as the tumor model because the same line was capable of growing both in animals and in culture (in both serum-containing and serum-free conditions). […] In addition to monitoring animal survival, their condition was qualitatively assessed as tumor growth progressed and used to generate a tumor index. […]

[1] = Stability of E1 in human serum albumin; assay type: physicochemical; conditions: for loss of activity: in the presence of HSA
Description: Higher temperature studies also indicate remarkable stability.

[2] = tested on: influenza virus A/NWS/33 (HINI); test: Influenza infection in mice; assay type: in vivo, BALB/c mice; conditions: for Mean Day to Death ± SD: mice dying before day 21; for decline in arterial oxygen saturation: days 3-11
Description: Specific pathogen-free female BALB/c mice were infected intranasally with an LD90 dose of influenza virus A/NWS/33 (HINI). […] Placebo treated mice received bovine serum albumin in phosphate-buffered saline. Mice were observed daily for death.

[3] = Experimental autoimmune encephalomyelitis (EAE) model; assay type: in vivo, SJL mice
Experimental: Treatments were given daily for 5 days. Linomide is a drug that is known to inhibit EAE and is used as a positive control. […] Severity of EAE is measured by means of the EAE score which starts at […] and increases to a score of 5 when death occurs. For ethical reasons mice are sacrificed when a score of 4 is reached.

[4] = tested on: Mycobacterium tuberculosis Erdman strain; test: Tuberculosis in mice; assay type: in vivo; conditions: 0.1, 1.0 or 10.0 ng i.p. days 1-5; day 0, 21 and 42
Experimental: Groups of mice were exposed to Mycobacterium tuberculosis Erdman strain (M.tb) by inhalation on day 0. […] A control group of mice received vehicle only. On day 0, 21 and 42 the colony forming units (cfu) of M.tb in the lung were determined.

[5] = 100 ng/day i.p., schedule 0, 3, 6
[6] = 100 ng/day i.p., schedule −2, 0, 3, 6
[7] = 1,000 ng/day i.p., schedule 0, 3, 6

In the case of “GM-CSF: granulocyte macrophage-colony stimulating factor”, the “survivorship versus sham injections” value (S-180 tumor) is reported as “followed similar survivorship curves”.

B1: ARP E1: recombinant E. tenella ARP from E. coli clone E1 (ATCC PTA-6120), SEQ ID NO:28 (protein, listed as Eimeria tenella)
chain: MGEEADTQAWDTSVREWLVDTGRVFAGGVASIADGCRLFGAAVEGEGNAWEELVKTNYQIEVPQEDGTSISVDCDEAETLRAVVDGRAPNGVYIGGTKYKLAEVKRDFTFNDQNYDVAILGKNKGGGFLIKTPNENVVIALYDEEKEQNKADALTTALNFAEYLYQGGF
In the case of B1, the loss in activity ([1]; 1 μg/mL, HSA 1, 5 or 10% w/v, 4° C., 4, 11, 25, 39 and 54 days, preliminary) is reported as “no loss in activity”, the “storage time without loss of activity (DC assay)” value ([1]; 1 μg/ml with 3% HSA, 4° C.) is reported as “at least 55 weeks” and the loss of activity ([1]; 2 hours 70° C.) is reported as “No loss of activity”. For the same molecule, the loss of activity ([1]; 6 hours at 55° C.) was “No loss of activity”, the loss of activity ([1]; 41 days at 37° C.) was “No loss of activity” and the Survive/Total [2, 5] was 2/10. For the same molecule, the “Mean Day to Death ± SD” value [2, 5] was 12.1 ± 1.6 days, the Survive/Total [2, 6] was 0/10 and the “Mean Day to Death ± SD” value [2, 6] was 12.3 ± 1.2 days. The “decline in arterial oxygen saturation” value ([2]; 1,000 ng) was “statistically significant reduction”, the Survive/Total [2, 7] was 3/10 and the “Mean Day to Death ± SD” value [2, 7] was 12.7 ± 2.7 days. The “decline in arterial oxygen saturation” value ([2]; 10,000 ng) was “statistically significant reduction”, the Survive/Total ([2]; 10,000 ng/day i.p., schedule 0, 3, 6, P < 0.05) was 5/10* and the “Mean Day to Death ± SD” value ([2]; 10,000 ng/day i.p., schedule 0, 3, 6) was 12.0 ± 1.4 days. For the same molecule, the “Day 15 EAE Score ± SD” value ([3]; 0.1 μg i.p. daily for 5 days from day 10) was 2.7 ± 1.3, the “Day 15 EAE Score ± SD” value ([3]; 1.0 μg i.p. daily for 5 days from day 10) was 1.5 ± 1.6 and the “Day 15 EAE Score ± SD” value ([3]; 10.0 μg i.p. daily for 5 days from day 10) was 1.1 ± 1.5. For the same molecule, the “cfu of M.tb in the lung versus control group” value [4] was “no statistically significant difference”.
